The record followed here is publication PMC6396743, “Two membrane-bound transcription factors regulate expression of various type-IV-pili surface structures in Sulfolobus acidocaldarius”.

In this series the target is T1, ArnR1 (Sulfolobus acidocaldarius, UniProt Q4J9L2 1-269).
T1 sequence: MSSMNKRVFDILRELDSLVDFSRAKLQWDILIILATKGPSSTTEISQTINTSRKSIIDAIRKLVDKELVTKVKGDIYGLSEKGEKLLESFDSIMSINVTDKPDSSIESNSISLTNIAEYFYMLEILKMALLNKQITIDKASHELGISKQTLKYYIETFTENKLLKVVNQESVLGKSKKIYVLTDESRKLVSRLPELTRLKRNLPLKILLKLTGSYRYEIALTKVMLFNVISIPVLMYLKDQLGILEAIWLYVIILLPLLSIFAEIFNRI
Nature of the series: MST; MST: 2.5 nM labeled dsDNA, 0.156-18 uM protein, 24 C, 10 min incubation; DNA annealed in 20 mM Tris/HCl pH 8, 200 mM NaCl, 0.05% DDM; protein in 20 mM Tris/HCl. The following applies: protein: recombinant, tags: N-terminal His10.

Where [1] appears, read: label: 5' Alexa Fluor 647, blunt.

B1: pflaB ArnR box-2 (dsDNA)
DNA 1: AACGTCGATCAGCAGTCGAA
DNA 2: TTTCGACTGCTGATCGACGTT
B1: the binding result (label: 5' Alexa Fluor 647, 5' overhang 1 nt on strand 2 as printed) is recorded as “no binding”.

B2: pflaB ArnR box-1 (dsDNA)
DNA 1: ATTGTGATTTTTGGTCGAAG
DNA 2: CTTCGACCAAAAATCACAAT
Regarding B2, the binding result under setting [1] is given as “no binding”.

B3: pupsX (dsDNA)
DNA 1: TCTCCCATATTACTATTGCCTATCTCGTTAATAGTATTTTC
DNA 2: GAAAATACTATTAACGAGATAGGCAATAGTAATATGGGAGA
Consider B3, for which, for the setting “label: Alexa Fluor 647, blunt”, the binding result was “no binding”.

B4: pflaB41 (dsDNA)
DNA 1: ACGTCGATCAGCAGTCGAAAAATTGTGATTTTTGGTCGAAG
DNA 2: CTTCGACCAAAAATCACAATTTTTCGACTGCTGATCGACGT
Usually Kd stands for the free concentration of one partner at which half of the binding sites on the other are occupied at equilibrium, for simple one-to-one binding. Take B4: the Kd under setting [1] is 3.31 µM.

B5: pSaci_2122 (dsDNA)
DNA 1: ATAATTATTACTCAGCGTTTATAACGTTTAACATGTTAAAA
DNA 2: TTTTAACATGTTAAACGTTATAAACGCTGAGTAATAATTAT
Consider B5, for which the binding result under setting [1] is “no binding”.

B6: paapF (dsDNA)
DNA 1: GTCTAAAGCCATAAAGATGAGCTTATTTTCATAGATTTAAGT
DNA 2: ACTTAAATCTATGAAAATAAGCTCATCTTTATGGCTTTAGAC
With B6, under setting [1], the binding result is “no binding”.
